PMC8067709, “Crystal Structure of the Epo1-Bem3 Complex for Bud Growth” (International Journal of Molecular Sciences, 2021)

B1: Bem3^CC1 (1-99) with 6xHis tag, isolated protein [Saccharomyces cerevisiae] / itself (parent)
chain: MTDNLTTTHGGSTTLELLAQYNDHRSKKDKSIEHIEKGTCSGKERNPSYDEIFTENIKLKLQVQEYETEIESLEKVIDMLQKNREASLEVVLEQVQNDS

Variants of: B1
Test: SEC-MALS (MALS coupled with gel filtration)
Conditions: read off a plot

In order of falling molar mass:
1. MTDNLTTTHGGSTTLELLAQYNDHRSKKDKSIEHIEKGTCSGKERNPSYDEIFTENIKLKLQVQEYATEIESLEKVIDMLQKNREASLEVVLEQVQNDS  20 kDa
2. MTDNLTTTHGGSTTLELLAQYNDHRSKKDKSIEHIEKGTCSGKERNPSYDEIFTENIKLKLQVQEAETEIESLEKVIDMLQKNREASLEVVLEQVQNDS  19 kDa
3. MTDNLTTTHGGSTTLELLAQYNDHRSKKDKSIEHIEKGTCSGKERNPSYDEIFTEAIKLKLQVQEYATEIESLEKVIDMLQKNREASLEVVLEQVQNDS  18 kDa
4. MTDNLTTTHGGSTTLELLAQYNDHRSKKDKSIEHIEKGTCSGKERNPSYDEIFTEAIKLKLQVQEYETEIESLEKVIDMLQKNREASLEVVLEQVQNDS  17 kDa
5. MTDNLTTTHGGSTTLELLAQYNDHRSKKDKSIEHIEKGTCSGKERNPSYDEIFTEAIKLKLQVQEAETEIESLEKVIDMLQKNREASLEVVLEQVQNDS  10 kDa
6. MTDNLTTTHGGSTTLELLAQYNDHRSKKDKSIEHIEKGTCSGKERNPSYDEIFTEAIKLKLQVQEAATEIESLEKVIDMLQKNREASLEVVLEQVQNDS  9.5 kDa
